Test results published in patent publication US20110251266, “APTAMER FOR NGF AND USE THEREOF” (Shionogi & Co., Ltd., published 2011).

B1: SEQ62 aptamer (ssRNA)
RNA: GGGAGAACUUCGACCAGAAGUUUGAAAGAAACCCAAAUUAAAGUGAACAGUAUGUGCGCAUACAUGGAUCCUCA
modifications: 2'-F pyrimidines
B2: SEQ40 aptamer (ssRNA)
RNA: GGGAGAACUUCGACCAGAAGUUUGAAAAAAACCCAGGAAAAUGGAAGACGUAUGUGCGCAUACAUGGAUCCUCA
modifications: 2'-F pyrimidines
B3: SEQ67 aptamer (ssRNA)
RNA: GGGAGAACUUCGACCAGAAGUCGAUAACGAACAAAACUCCCAAAGGAAUAUAUGUGCGCAUACAUGGAUCCUCA
modifications: 2'-F pyrimidines
B4: SEQ37 aptamer (ssRNA)
RNA: GGGAGAACUUCGACCAGAAGUUUGAAAGAAACCCAAAGGUGAAACAACAAUAUGUGCGCAUACAUGGAUCCUCA
modifications: 2'-F all pyrimidines
B5: SEQ38 aptamer (ssRNA)
RNA: GGGAGAACUUCGACCAGAAGAGAAUGAAACUCCACAAAGUACAUAAAACAUAUGUGCGCAUACAUGGAUCCUCA
modifications: 2'-F all pyrimidines
B6: SEQ39 aptamer (ssRNA)
RNA: GGGAGAACUUCGACCAGAAGUGUGAAAAGAACCCAAAUAAAACAACAAUGUAUGUGCGCAUACAUGGAUCCUCA
modifications: 2'-F all pyrimidines
B7: SEQ40 aptamer (ssRNA)
RNA: GGGAGAACUUCGACCAGAAGUUUGAAAAAAACCCAGGAAAAUGGAAGACGUAUGUGCGCAUACAUGGAUCCUCA
modifications: 2'-F all pyrimidines
B8: SEQ41 aptamer (ssRNA)
RNA: GGGAGAACUUCGACCAGAAGUUUGAAAGGAACCCAAAGCGAAACAAAACGUAUGUGCGCAUACAUGGAUCCUCA
modifications: 2'-F all pyrimidines
B9: SEQ42 aptamer (ssRNA)
RNA: GGGAGAACUUCGACCAGAAGUUUGAAAAAAACCCAAAAGAGCAGCAGAGAUAUGUGCGCAUACAUGGAUCCUCA
modifications: 2'-F all pyrimidines
B10: SEQ49 aptamer (ssRNA)
RNA: GGGAGAACUUCGACCAGAAGUGAAAGAAACUCCCAAGACGGUAACGAAAGUAUGUGCGCAUACAUGGAUCCUCA
modifications: 2'-F all pyrimidines
B11: SEQ51 aptamer (ssRNA)
RNA: GGGAGAACUUCGACCAGAAGUUUGAAAGAAACCCAAAAAAACAACAUAUGAACUAUGUGCGCAUACAUGGAUCCUCA
modifications: 2'-F all pyrimidines
B12: SEQ52 aptamer (ssRNA)
RNA: GGGAGAACUUCGACCAGAAGUUUGAAAGAAACCCAAAUAUACAAAACACUAUGUGCGCAUACAUGGAUCCUCA
modifications: 2'-F all pyrimidines
B13: SEQ54 aptamer (ssRNA)
RNA: GGGAGAACUUCGACCAGAAGUCGAAAGUGAAAGAAACUCCAACGAAAGCAUAUGUGCGCAUACAUGGAUCCUCA
modifications: 2'-F all pyrimidines
B14: SEQ57 aptamer (ssRNA)
RNA: GGGAGAACUUCGACCAGAAGUUUGAAAAAAACCCAAACACCGAAGCACAAAUAUGUGCGCAUACAUGGAUCCUCA
modifications: 2'-F all pyrimidines
B15: SEQ58 aptamer (ssRNA)
RNA: GGGAGAACUUCGACCAGAAGUUUGAAAAGAACCCAAAUACAGAAUAAAUGUAUGUGCGCAUACAUGGAUCCUCA
modifications: 2'-F all pyrimidines
B16: SEQ62 aptamer (ssRNA)
RNA: GGGAGAACUUCGACCAGAAGUUUGAAAGAAACCCAAAUUAAAGUGAACAGUAUGUGCGCAUACAUGGAUCCUCA
modifications: 2'-F all pyrimidines
B17: SEQ64 aptamer (ssRNA)
RNA: GGGAGAACUUCGACCAGAAGUUUGAAAGAAACCCAAAACAUUAGCACACAUAUGUGCGCAUACAUGGAUCCUCA
modifications: 2'-F all pyrimidines
B18: SEQ67 aptamer (ssRNA)
RNA: GGGAGAACUUCGACCAGAAGUCGAUAACGAACAAAACUCCCAAAGGAAUAUAUGUGCGCAUACAUGGAUCCUCA
modifications: 2'-F all pyrimidines
B19: SEQ68 aptamer (ssRNA)
RNA: GGGAGAACUUCGACCAGAAGUCGAGAGCGAAAGAAACUCCCAAAACACAGUAUGUGCGCAUACAUGGAUCCUCA
modifications: 2'-F all pyrimidines
B20: SEQ69 mosaic aptamer (mixed)
DNA: GGGAGAGGCAAGAATAGGGCCCAGCTGAAAAAAACCTGGACGTACACCGTTCGCCGAGCGGGTGAAGAGAAGAGACATTAGGA
modifications: purines ribo, pyrimidines (C,T) deoxy
B21: SEQ70 mosaic aptamer (mixed)
DNA: GGGAGAGGCAAGAATAGGGCTGGAAATAGAACCGCGCTGTCTTCATTAAGCCGCCCAACGGTGAAGAGAAGAGACATTAGGA
modifications: purines ribo, pyrimidines (C,T) deoxy
B22: SEQ71 mosaic aptamer (mixed)
DNA: GGGAGAGGCAAGAATAGGGCACTTGAAAAAAACCCAAATTTACCGTCTTCAGCGTCGGGTGTGAAGAGAAGAGACATTAGGA
modifications: purines ribo, pyrimidines (C,T) deoxy
B23: SEQ72 mosaic aptamer (mixed)
DNA: GGGAGAGGCAAGAATAGGGCTGGATGGGCAGTAACCTGAAAAAAACCACCCACCTCTACCGTGAAGAGAAGAGACATTAGGA
modifications: purines ribo, pyrimidines (C,T) deoxy
B24: SEQ73 mosaic aptamer (mixed)
DNA: GGGAGAGGCAAGAATAGGGCACTTGAAAAAAACCCAAAGAAAGAATACTTACCCGGCGCGTGAAGAGAAGAGACATTAGGA
modifications: purines ribo, pyrimidines (C,T) deoxy
B25: SEQ74 mosaic aptamer (mixed)
DNA: GGGAGAGGCAAGAATAGGGCATAGTGTAGACCCCTCTCAAGATACCCCATGAATTGCCCCGTGAAGAGAAGAGACATTAGGA
modifications: purines ribo, pyrimidines (C,T) deoxy
B26: SEQ75 aptamer (ssRNA)
RNA: GGGAGAACUUCGACCAGAAGUGAAAGAAUCUCCAAAGACAAGAUAAAAACAACCGUAUGUGCGCAUACAUGGAUCCUC
modifications: 2'-F all pyrimidines
B27: SEQ76 aptamer (ssRNA)
RNA: GGGAGAACUUCGACCAGAAGGAUAAACGCAUGUAUUUGCAGUAUUAAAAAUGCCUUAUGUGCGCAUACAUGGAUCCUC
modifications: 2'-F all pyrimidines
B28: SEQ77 aptamer (ssRNA)
RNA: GGGAGAACUUCGACCAGAAGUGAAAAAAUCUCCAGUUGCAAGACGAAACAAACCUUAUGUGCGCAUACAUGGAUCCUC
modifications: 2'-F all pyrimidines
B29: SEQ78 aptamer (ssRNA)
RNA: GGGAGAACUUCGACCAGAAGUGUGUAUUGUUCAGGGUGUGCCCAGCCUAUAACCAUAUGUGCGCAUACAUGGAUCCUC
modifications: 2'-F all pyrimidines
B30: SEQ79 aptamer (ssRNA)
RNA: GGGAGAACUUCGACCAGAAGGAUAGCCAUGUGGAGGUGAAGACUGAAAUAAACCAUAUGUGCGCAUACAUGGAUCCUC
modifications: 2'-F all pyrimidines
B31: SEQ80 aptamer (ssRNA)
RNA: GGGAGAACUUCGACCAGAAGUGAAAACAACCUCCCAAUAAUGAUCACAGAAAUCCUAUGUGCGCAUACAUGGAUCCUC
modifications: 2'-F all pyrimidines
B32: SEQ81 aptamer (ssRNA)
RNA: GGGAGAACUUCGACCAGAAGGAGAUGACUGUGUAACCACAGUAUGAAAUAAACUCUAUGUGCGCAUACAUGGAUCCUC
modifications: 2'-F all pyrimidines
B33: SEQ82 aptamer (ssRNA)
RNA: GGGAGAACUUCGACCAGAAGAGGAUGCUUGUUUGGUUACAAGCUGAAAGAAACCUUAUGUGCGCAUACAUGGAUCCUC
modifications: 2'-F all pyrimidines
B34: SEQ83 aptamer (ssRNA)
RNA: GGGAGAACUUCGACCAGAAGUUGAAGCUUGAAAAAAACCCAGGAUUAAACAGACAGUAUGUGCGCAUACAUGGAUCCUC
modifications: 2'-F all pyrimidines
B35: SEQ85 aptamer (ssRNA)
RNA: GGGAGAACUUCGACCAGAAGCGGAAGCCUGCGUAACCGCAGGAUGAAAACAACCGUAUGUGCGCAUACAUGGAUCCUC
modifications: 2'-F all pyrimidines
B36: SEQ86 aptamer (ssRNA)
RNA: GGGAGAACUUCGACCAGAAGGAGUAGCCAGUGAACCUGGAAUAUGAAAAAAACCUUAUGUGCGCAUACAUGGAUCCUC
modifications: 2'-F all pyrimidines

target: T1, beta-NGF (nerve growth factor) (Homo sapiens, UniProt P01138 P01138:122-241); experiment: cell_activity; Neuroscreen-1 neurite outgrowth; conditions: tags: R&D Systems human NGF; chain copies: 2
Procedure: The neurite outgrowth inhibitory activity of aptamer was evaluated by using Neuroscreen-1 cell, which is a subclone of PC-12 cells. 2500 Cells per well were cultured for one day in an RPMI-1640 medium containing 2.5% horse serum and 1.25% fetal bovine serum in a 96 well flat-bottom plate coated with collagen type IV. A mixed solution of NGF (final concentration 15 ng/ml or 1.1 nM) prereacted in a serum-free RPMI-1640 medium at room temperature or 37° C. for 30 min to 1 hr and an aptamer (final concentration 500-3 nM) was added. Two or three days later, the cytoplasm and nuclei were stained using Cellomics Neurite Outgrowth Kits (manufactured by Thermo Scientific), and neurite length per cell was measured by Cellomics ArrayScan VTI (manufactured by Thermo Scientific). With the neurite length per cell obtained by culturing the cell for 2 days with the addition of NGF alone as inhibitory activity 0%, and that of the cell obtained by NGF free culture as inhibitory activity 100%, the inhibitory activity of the aptamer was calculated from the neurite length per cell obtained by culturing with the addition of NGF and the aptamer in mixture. […] When the inhibitory activity was 0% or below, ‘0%’ is indicated. When it was not less than 100%, ‘100%’ is indicated. The 50% inhibitory concentration was determined from the concentrations at two, above and below points sandwiching the 50% inhibitory activity.

T1 sequence (P01138 122-241, one chain of several): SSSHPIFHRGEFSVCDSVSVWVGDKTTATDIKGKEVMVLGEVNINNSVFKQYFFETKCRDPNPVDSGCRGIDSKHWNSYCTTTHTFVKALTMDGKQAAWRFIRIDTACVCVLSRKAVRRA

How did the IC50 turn out when B1 was run?
The IC50 was 2 nM.

B2 was tested. Which IC50 did it give?
The IC50 was 2.4 nM.

Which IC50 does the source give for B3 here?
The IC50 was 2.7 nM.

target: T1, beta-NGF (nerve growth factor); experiment: SPR; blocks NGF-TrkA and NGF-P75; conditions: tags: R&D Systems; chain copies: 2
Procedure: As directed in BIAcore Company's protocol, Protein A (21181, PIERCE) was immobilized on a CM5 sensor chip. About 1100 RU of human Trk A-Fc fused with the Fc portion of IgG (175-TK, R&D systems) was immobilized thereon. As the analyte, a mixture of NGF (0.1 μM) and each aptamer (0.33 μM) was injected after being allowed to stand for 30 minutes. […] When NGF binds stronger to a receptor than an aptamer, the aptamer may be removed and NGF may bind to the receptor. […] Using the binding amount of NGF and NGF receptor without an aptamer as 100, the binding amount of NGF and NGF receptor added with an aptamer was determined as a correction value. Here, the binding amount is the RU value at the peak top of the sensorgram of BIAcore (RU value immediately after completion of NGF injection). […] A similar experiment was performed for another receptor P75 (p75-Fc; R&D systems).

With GGGAAGCCUGUGGAGCUGCAGGAUGAAAAAAACCCAAA (ssRNA, 2'-F all pyrimidines) [SEQ35 aptamer] as the binder, how does the activity read?
Its activity is at least 60 % inhibition.

B4 was tested. Which activity did it give?
The activity was at least 60 % inhibition.

Which activity does the source give for B5 here?
The activity was at least 60 % inhibition.

How did the activity turn out when B6 was run?
Its activity is at least 60 % inhibition.

B7 was tested. Which activity did it give?
The activity was at least 60 % inhibition.

How did the activity turn out when B8 was run?
Its activity is at least 60 % inhibition.

Which activity does the source give for B9 here?
Its activity is at least 60 % inhibition.

B10 was tested. Which activity did it give?
The activity was at least 60 % inhibition.

How did the activity turn out when B11 was run?
The activity was at least 60 % inhibition.

With B12 as the binder, how does the activity read?
Its activity is at least 60 % inhibition.

With B13 as the binder, how does the activity read?
The activity was at least 60 % inhibition.

B14 was tested. Which activity did it give?
Its activity is at least 60 % inhibition.

Which activity does the source give for B15 here?
The activity was at least 60 % inhibition.

How did the activity turn out when B16 was run?
The activity was at least 60 % inhibition.

How did the activity turn out when B17 was run?
The activity was at least 60 % inhibition.

For B18, which activity is on record?
Its activity is at least 60 % inhibition.

B19 was tested. Which activity did it give?
Its activity is at least 60 % inhibition.

How did the activity turn out when B20 was run?
Its activity is at least 60 % inhibition.

How did the activity turn out when B21 was run?
The activity was at least 60 % inhibition.

B22 was tested. Which activity did it give?
The activity was at least 60 % inhibition.

With B23 as the binder, how does the activity read?
The activity was at least 60 % inhibition.

Which activity does the source give for B24 here?
The activity was at least 60 % inhibition.

B25 was tested. Which activity did it give?
The activity was at least 60 % inhibition.

B26 was tested. Which activity did it give?
The activity was at least 60 % inhibition.

Which activity does the source give for B27 here?
Its activity is at least 60 % inhibition.

For B28, which activity is on record?
Its activity is at least 60 % inhibition.

How did the activity turn out when B29 was run?
The activity was at least 60 % inhibition.

B30 was tested. Which activity did it give?
The activity was at least 60 % inhibition.

For B31, which activity is on record?
The activity was at least 60 % inhibition.

B32 was tested. Which activity did it give?
The activity was at least 60 % inhibition.

B33 was tested. Which activity did it give?
The activity was at least 60 % inhibition.

For B34, which activity is on record?
Its activity is at least 60 % inhibition.

With B35 as the binder, how does the activity read?
The activity was at least 60 % inhibition.

How did the activity turn out when B36 was run?
The activity was at least 60 % inhibition.
